According to US10000771B2, “Nuclear targeting sequences” (Yeda Research and Development Co. Ltd., priority 2007, dated 2018):

Key:
COS7 cells [1] = test: Subcellular fractionation of GFP-ERK2 constructs; type: cell-based; details: 48 hr after transfection, serum-starved
Description: FIG. 6 is an autoradiograph illustrating the subcellular fractionation of WT-GFP-ERK2 (WT), APA-GFP-ERK2 (APA), or EPE-GFP-ERK2 (EPE). COS7 cells were grown in 10 cm plates and transfected with the above ERK2 constructs. Twenty-four hr after transfection the cells were serum-starved for 16 hr and subjected to cellular fractionation as described under materials and Methods. Western blot analysis of aliquots of the fractions were stained with anti GFP Ab to detect the ERK2 and its mutant, and with anti tubulin and anti c-Jun Abs as markers for the cytoplasmic and nuclear fractions respectively.
Cellular Fractionation: Transfected COS7 cells were starved (0.1% FBS) for 16 h, after which they were washed with ice-cold PBS, suspended in ice-cold buffer H, and centrifuged (12,000×g, 5 min). Then, the nuclear and cytosolic fractions were isolated as described [H. Rubinfeld, T. Hanoch, R. Seger, J. Biol. Chem. 274, 30349 (1999)]. Briefly, the pellets were suspended in 0.1% NP-40 followed by centrifugation (12,000×g, 5 min). The supernatant, containing the cytosolic fraction, was boiled in sample buffer. The pellet was suspended in extraction buffer (420 mM Nacl, 50 mM β-glycerophosphate, 0.5 mM Na3VO4, 1.5 mM MgCl2, 0.2 mM EDTA, 1 mM DTT, 25% glycerol), incubate on ice for 10 min, sonicated (50 W, 2×7 sec), and centrifuged (12,000×g, 5 min). […]

CHO cells = test: Fluorescence microscopy of ERK2 constructs (subcellular localization); type: cell-based
Description: FIGS. 1A-1R are photomicrographs illustrating the role of SPS in the non-regulated accumulation of ERK2 in the nucleus. CHO (FIGS. 1A-F and 1M-R) or COS7 cells (FIGS. 1G-L) were grown on cover slips and transfected with WT-ERK2, or the mutants 244-6A and Δ244-6. Twenty-four hr following transfection, the cells were serum-starved (16 hr), fixed, stained with DAPI and visualized using a fluorescent microscope.
FIGS. 2A-2X are photomicrographs illustrating the role of SPS in the stimulated nuclear translocation of ERK2. CHO cells were grown on cover slips and co-transfected with HA-MEK1 together with either WT-ERK2, 244-6A, or Δ244-6. Twenty-four hr after transfection, the cells were serum starved for 16 hours, treated with TPA (250 nM, 15 min), except in WT-10 where the cells were treated with 10 nM TPA for 15 min. After treatments the cells were fixed and stained with either anti-HA Ab or DAPI.
FIGS. 5A-5F are photomicrographs illustrating that mutating the Ser residues in the SPS to Glu induces the nuclear accumulation of ERK2. CHO cells were grown on cover slips and transfected with WT-GFP-ERK2 (WT), APA-GFP-ERK2 (APA), or EPE-GFP-ERK2 (EPE). Twenty-four hr after transfection, the cells were serum-starved, fixed, stained with DAPI and visualized by a fluorescent microscope.
FIGS. 7A-7H are photomicrographs illustrating that EPE-ERKs translocates to the nucleus faster than WT-ERK. CHO cells were transfected with WT-GFP-ERK2 (WT) and EPE-GFP-ERK2 (EPE). Eight (FIGS. 7A-D) or twelve (FIGS. 7E-H) hours after transfection the cells were fixed, stained with DAPI and visualized by a fluorescent microscope.
Immunofluorescence Microscopy. Cells were fixed (30 min in 3% paraformaldehyde in PBS or 10 min with ice-cold methanol), followed by 5-min permeabilization with 0.2% Triton X-100 in PBS (23° C.). The fixed cells were sequentially incubated with the appropriate Abs (45 min) followed by rhodamine-conjugated secondary Abs (45 min) and DAPI. Slides were visualized using a fluorescence microscope (Nikon, Japan) at 400× magnifications. […]

importin-7 = target: T1, importin-7 (Homo sapiens, UniProt O95373); test: Coimmunoprecipitation with importin-7; type: binding; details: HeLa cells, coimmunoprecipitation with anti GFP Ab, with or without stimulation
T1 construct: endogenous in cells; host or cells: HeLa
T1 sequence (O95373 whole entry): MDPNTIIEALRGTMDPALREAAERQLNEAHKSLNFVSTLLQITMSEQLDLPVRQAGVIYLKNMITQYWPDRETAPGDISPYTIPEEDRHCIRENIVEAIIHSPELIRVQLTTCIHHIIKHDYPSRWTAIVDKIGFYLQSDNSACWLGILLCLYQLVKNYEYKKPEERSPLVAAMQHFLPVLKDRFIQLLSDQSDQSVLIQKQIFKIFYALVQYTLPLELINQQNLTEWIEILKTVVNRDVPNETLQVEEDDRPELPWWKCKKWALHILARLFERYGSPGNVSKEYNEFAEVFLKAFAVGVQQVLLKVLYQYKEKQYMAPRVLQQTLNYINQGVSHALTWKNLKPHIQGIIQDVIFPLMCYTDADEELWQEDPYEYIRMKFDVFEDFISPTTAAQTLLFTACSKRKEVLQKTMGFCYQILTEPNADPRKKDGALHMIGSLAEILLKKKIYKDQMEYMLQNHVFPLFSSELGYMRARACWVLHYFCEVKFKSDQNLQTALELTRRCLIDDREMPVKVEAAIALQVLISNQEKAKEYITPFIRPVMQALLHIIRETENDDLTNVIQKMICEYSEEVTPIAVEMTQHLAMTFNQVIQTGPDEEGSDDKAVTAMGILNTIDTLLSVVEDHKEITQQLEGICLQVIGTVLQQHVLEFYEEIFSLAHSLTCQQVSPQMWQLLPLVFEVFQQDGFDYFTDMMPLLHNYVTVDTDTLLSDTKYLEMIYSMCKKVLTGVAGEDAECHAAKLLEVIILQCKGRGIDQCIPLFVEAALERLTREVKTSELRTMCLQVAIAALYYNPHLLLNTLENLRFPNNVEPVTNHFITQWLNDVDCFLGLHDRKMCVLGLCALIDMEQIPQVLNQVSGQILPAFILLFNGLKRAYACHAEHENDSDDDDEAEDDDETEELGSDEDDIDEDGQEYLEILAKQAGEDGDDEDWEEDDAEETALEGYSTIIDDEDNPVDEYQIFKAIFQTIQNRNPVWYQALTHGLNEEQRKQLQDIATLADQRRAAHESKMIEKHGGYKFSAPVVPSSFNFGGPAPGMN
Description: (§1) FIGS. 19A-19C are autoradiographs illustrating that phospho-SPS interacts with importin-7 and releases Nup153c binding without involvment of importin-β. […]. Interaction of ERK2 with Importin-7 is enhanced by EGF stimulation and EPE mutation. HeLa cells overexpressing WT-ERK (WT), ERK-APA (APA), ERK-EPE (EPE) or GFP were serum starved and treated with EGF (50 ng/ml, 10 min). The extracts of the treated cells were then subjected to coimmunoprecipitation using A/G beads pre-conjugated with anti GFP Ab and mild washes. The coimmunoprecipitated importin-7 (first panel) and importin-β (third panel), as well as their loading amounts (panels 2 and 4 respectively) were determined by WB using anti importin-7 (αImp7) and importin-β (αImpβ) Abs. The equal amount of immunoprecipitated ERKs was determined with anti GFP (αGFP; IP) Ab. FIG. 19B. Interaction of 2GFP-SPS and its mutants with importin-7. HeLa cells overexpressing 2GFP, 2GFP-SPS, 2GFP-APA and 2GFP-EPE constructs were subjected to coimmunoprecipitation as described in FIG. 19A (without EGF stimulation). FIG. 19C. Interaction of NUP153 with WTERK2 and its APA and EPE mutants. NUP153c is elevated in APA-ERK2, but reduced in EPE-ERK2. Immunoprecipitated and stringently washed WT-ERK2 (WT), APA-ERK2 (APA) or ERK2 from […] cells pre-treated with or without TPA (250 nM, 15 min) were incubated with 0.5 μg recombinant His-Nup153c. […]

Nup153c = test: Interaction with recombinant His-Nup153c; type: binding; details: immunoprecipitated ERK2 incubated with 0.5 μg recombinant His-Nup153c
Description: as §1

COS7 cells [2] = test: Proliferation assay of COS7 cells overexpressing ERK2 constructs; type: cell-based; details: 72 hours after transfection
Description: FIG. 16 is a bar graph illustrating that the prevention of SPS phosphorylation inhibits proliferation. COS7 cells overexpressing WT-ERK2, 244-6A-ERK2, ▴244-6-ERK2, APA-ERK2 or EPE-ERK2 were subjected to proliferation assay 72 hours after transfection. The bar graph represent the mean+/−SD (n=3), Student t test was used for statistical analysis (*, p<0.01).

B1: EPE-ERK2: GFP-ERK2 with the two Ser residues of the SPS domain replaced with Glu (phosphomimetic) (protein)
chain: MAAAAAAGPEMVRGQVFDVGPRYTNLSYIGEGAYGMVCSAYDNLNKVRVAIKKISPFEHQTYCQRTLREIKILLRFRHENIIGINDIIRAPTIEQMKDVYIVQDLMETDLYKLLKTQHLSNDHICYFLYQILRGLKYIHSANVLHRDLKPSNLLLNTTCDLKICDFGLARVADPDHDHTGFLTEYVATRWYRAPEIMLNSKGYTKSIDIWSVGCILAEMLSNRPIFPGKHYLDQLNHILGILGEPEQEDLNCIINLKARNYLLSLPHKNKVPWNRLFPNADSKALDLLDKMLTFNPHKRIEVEQALAHPYLEQYYDPSDEPIAEAPFKFDMELDDLPKEKLKELIFEETARFQPGYRS
modifications: left off: large carriers
In the case of B1, the “localized in the nucleus” value (COS7 cells [1]) is reported as ~95%, the “speed of translocation into the nucleus” value (CHO cells; CHO cells, shortly (8 or 12 hours) after transfection) is reported as “faster than WT-ERK2” and the “subcellular localization in quiescent cells” value (CHO cells; overexpressed in CHO (and COS7) cells, serum-starved, fluorescent microscope) is reported as “pronounced nuclear localization”. The “interaction of ERK2 constructs with importin-7” value (importin-7) was “dramatically increased the interaction”, the “interaction with Nup153” value (Nup153c) was “reduced” and the serum-induced cell proliferation (COS7 cells [2]) was “slightly enhanced”.
